In patent US20060240474A1, “Peptides able to switch between two structural states and their use” (UNIVERSITY OF SUSSEX, priority 2002, published 2006):
Where a SMILES comes first, the peptide text is derived from it. Bridges are numbered along the chain shown (N, C = ends). Roman numbers before positions name the chains, in order. Where no end group is shown, it is not given here. The star is where a group is joined. Cam = NC(=O)C*

Tests used:
[1] = Circular dichroism spectroscopy (helicity); assay type: physicochemical; conditions: for helicity compared with other designs (CD signal at 222 nm): pH 7, comparator named in the value; for helix content judged by CD spectroscopy: pH 7, 5° C., 100 μM peptide (b86 prints 100 mM)
Procedure: (§1) Circular dichroism spectroscopy. CD measurements were made using a JASCO J-715 spectropolarimeter fitted with a Peltier temperature controller. Peptide solutions were prepared in 25 mM potassium phosphate buffer at pH 7 and were examined in 1 mm or 1 cm quartz cuvettes (with stirring). Spectra were recorded at 5° C. using 1 nm intervals, a 1 nm bandwidth and 4 sec response time. Thermal unfolding curves were recorded through 1° C. min^−1 ramps using a 2 nm bandwidth, averaging the signal for 16 s every 1° C. intervals. After baseline correction, ellipticities in mdeg were converted to molar ellipticities (deg cm^2 dmol-res-^−1) by normalising for the concentration of peptide bonds.

[2] = Thermal unfolding followed by CD spectroscopy; assay type: physicochemical; conditions: for thermal destabilisation compared with CSP-3o: oxidised forms; for thermal stability in words: comparator named in the value; for TM of the oxidised state: oxidised form; for TM of the oxidised state / TM of the reduced, dimeric form: ±2 for all three values; for midpoint of thermal unfolding transition, TM: FIG. 3B, concentration not given
Procedure: as §1

[3] = target: the molecule itself; assay: sedimentation equilibrium AUC, monomer-dimer fit, pH 7, 5 C (homodimerisation)
Procedure: Sedimentation equilibrium experiments were conducted at 5° C. in a Beckman-Optima XL-I analytical ultracentrifuge fitted with an An-60 Ti rotor. A […] peptide solution at […] in 25 mM K phosphate buffer pH 7 containing 0.1 M KCl was equilibrated for 48 h at speeds of 40 000, 47 500/50 000 and 55 000/60 000 rpm. Data were fitted simultaneously assuming either a single ideal species or a monomer-dimer equilibrium and fixed monomer molecular weight, using routines in the Beckman-Optima XL-A/XLI-I data analysis software (v4.0). The molecular weights (Table 2) and partial specific volumes (range 0.7417 to 0.7461) of the peptides were calculated from their amino-acid sequences, and the viscosity of the buffer at 5° C. was taken to be […].

CGGKIRALEYKIARLEQAKQAKIRALEQKIAALEGGC [CSP-5o] (disulfide 1-37)
helicity compared with other designs (CD signal at 222 nm) [1]: marginally less helical than the parent, CSP-3o
thermal destabilisation compared with CSP-3o [2]: ~20 °C

CGGEIRALKYEIARLKQAKQAEIRALKQEIAALKGGC [CSP-4o] (disulfide 1-37)
helicity compared with other designs (CD signal at 222 nm) [1]: marginally less helical than the parent, CSP-3o
thermal destabilisation compared with CSP-3o [2]: ~20 °C

CGGEIRALKYEIARLKQAAQAKIRALEQKIAALEGGC [CSP-6r]
helicity compared with other designs (CD signal at 222 nm) [1]: significantly increased over the other hendecad-containing designs CSP-2r and CSP-3r
TM ([2]; 10 μM peptide): 61±2 °C
thermal stability in words [2]: significantly increased over the other hendecad-containing designs CSP-2r and CSP-3r

CC[C@H](C)[C@H](NC(=O)[C@H](CCCCN)NC(=O)[C@H](CCC(N)=O)NC(=O)[C@H](CCC(=O)O)NC(=O)[C@H](CC(C)C)NC(=O)[C@H](C)NC(=O)[C@H](CCCNC(=N)N)NC(=O)[C@H](CCCCN)NC(=O)[C@H](CCCCN)NC(=O)[C@H](C)NC(=O)[C@H](CCC(N)=O)NC(=O)[C@H](C)NC(=O)[C@H](C)NC(=O)[C@H](CCC(N)=O)NC(=O)[C@H](CCCCN)NC(=O)[C@H](CC(C)C)NC(=O)[C@H](CCCNC(=N)N)NC(=O)[C@H](C)NC(=O)[C@@H](NC(=O)[C@H](CCC(=O)O)NC(=O)[C@H](Cc1ccc(O)cc1)NC(=O)[C@H](CCCCN)NC(=O)[C@H](CC(C)C)NC(=O)[C@H](C)NC(=O)[C@H](CCCNC(=N)N)NC(=O)[C@@H](NC(=O)[C@H](CCC(=O)O)NC(=O)CNC(=O)CNC(=O)[C@@H](N)CS)[C@@H](C)CC)[C@@H](C)CC)C(=O)N[C@@H](C)C(=O)N[C@@H](C)C(=O)N[C@@H](CC(C)C)C(=O)N[C@@H](CCC(=O)O)C(=O)NCC(=O)NCC(=O)N[C@@H](CS)C(=O)O [CSP-7] (H-CGGEIRALKYEIARLKQAAQAKKRALEQKIAALEGGC-OH; N-terminus and C-terminus assumed)
TM of the oxidised state [2]: 53±2 °C
TM of the reduced, dimeric form [2]: 34±2 °C

CGGEIRALKYEIARLKQAAQAKKRALEQKIAALEGGC [CSP-7o] (disulfide 1-37)
thermal stability in words [2]: affected less

CGGEIRALKYEIARLKQ----KKRALEQKIAALEGGC [CSP-1o] (disulfide I:1-II:16; not fully specified)
helix content judged by CD spectroscopy [1]: 20%
thermal stability in words [2]: changed little upon heating

CGGEIRALKYEIARLKQAAQAKKRALEQKIAALEGGC [CSP-7r]
helicity compared with other designs (CD signal at 222 nm) [1]: compromised both the helicity and the thermal stability
thermal stability in words [2]: compromised both the helicity and the thermal stability

CGGEIRALKYEIARLKQ----KKRALEQKIAALEGGC [CSP-1r] (not fully specified (some residues); cysteine pairing not given here)
helix content judged by CD spectroscopy [1]: 90%
transition midpoint, TM ([2]; 10 mM sample (so in the source)): 50 °C
transition midpoint, TM ([2]; 100 mM peptide (so in the source)): 62 °C

CC[C@H](C)[C@H](NC(=O)[C@H](CCCCN)NC(=O)[C@H](CCC(N)=O)NC(=O)[C@H](CCC(=O)O)NC(=O)[C@H](CC(C)C)NC(=O)[C@H](C)NC(=O)[C@H](CCCNC(=N)N)NC(=O)[C@@H](NC(=O)[C@H](CCCCN)NC(=O)[C@H](C)NC(=O)[C@H](CCC(N)=O)NC(=O)[C@H](CCCCN)NC(=O)[C@H](C)NC(=O)[C@H](CCC(N)=O)NC(=O)[C@H](CCCCN)NC(=O)[C@H](CC(C)C)NC(=O)[C@H](CCCNC(=N)N)NC(=O)[C@H](C)NC(=O)[C@@H](NC(=O)[C@H](CCC(=O)O)NC(=O)[C@H](Cc1ccc(O)cc1)NC(=O)[C@H](CCCCN)NC(=O)[C@H](CC(C)C)NC(=O)[C@H](C)NC(=O)[C@H](CCCNC(=N)N)NC(=O)[C@@H](NC(=O)[C@H](CCC(=O)O)NC(=O)CNC(=O)CNC(=O)[C@@H](N)CS)[C@@H](C)CC)[C@@H](C)CC)[C@@H](C)CC)C(=O)N[C@@H](C)C(=O)N[C@@H](C)C(=O)N[C@@H](CC(C)C)C(=O)N[C@@H](CCC(=O)O)C(=O)NCC(=O)NCC(=O)N[C@@H](CS)C(=O)O [CSP-3] (H-CGGEIRALKYEIARLKQAKQAKIRALEQKIAALEGGC-OH; N-terminus and C-terminus assumed)
TM of the oxidised state [2]: 50 °C
TM of the reduced, dimeric form [2]: 40 °C

CC[C@H](C)[C@H](NC(=O)[C@H](CCCCN)NC(=O)[C@H](CCC(N)=O)NC(=O)[C@H](CCC(=O)O)NC(=O)[C@H](CC(C)C)NC(=O)[C@H](C)NC(=O)[C@H](CCCNC(=N)N)NC(=O)[C@@H](NC(=O)[C@H](CCCCN)NC(=O)[C@H](C)NC(=O)[C@H](CCC(N)=O)NC(=O)[C@H](C)NC(=O)[C@H](C)NC(=O)[C@H](CCC(N)=O)NC(=O)[C@H](CCCCN)NC(=O)[C@H](CC(C)C)NC(=O)[C@H](CCCNC(=N)N)NC(=O)[C@H](C)NC(=O)[C@@H](NC(=O)[C@H](CCC(=O)O)NC(=O)[C@H](Cc1ccc(O)cc1)NC(=O)[C@H](CCCCN)NC(=O)[C@H](CC(C)C)NC(=O)[C@H](C)NC(=O)[C@H](CCCNC(=N)N)NC(=O)[C@@H](NC(=O)[C@H](CCC(=O)O)NC(=O)CNC(=O)CNC(=O)[C@@H](N)CS)[C@@H](C)CC)[C@@H](C)CC)[C@@H](C)CC)C(=O)N[C@@H](C)C(=O)N[C@@H](C)C(=O)N[C@@H](CC(C)C)C(=O)N[C@@H](CCC(=O)O)C(=O)NCC(=O)NCC(=O)N[C@@H](CS)C(=O)O [CSP-6] (H-CGGEIRALKYEIARLKQAAQAKIRALEQKIAALEGGC-OH; N-terminus and C-terminus assumed)
TM of the oxidised state [2]: 47 °C
TM of the reduced, dimeric form [2]: 75 °C

CGGKIRALEYKIARLEQAKQAKIRALEQKIAALEGGC [CSP-5r]
thermal stability lower than the parent (CSP-3r) by ([2]; reduced forms): 12 °C

CGGEIRALKYEIARLKQGGGGKKRALEQKIAALEGGC [CSP-2r]
helix content judged by CD spectroscopy [1]: ~20%
midpoint of thermal unfolding transition, TM [2]: 22±2 °C

CGGEIRALKYEIARLKQAKQAEIRALKQEIAALKGGC [CSP-4r]
thermal stability higher than CSP-3r by ([2]; reduced forms): ~8 °C

CGGEIRALKYEIARLKQAKQAKIRALEQKIAALEGGC [CSP-3r]
helicity compared with other designs (CD signal at 222 nm) [1]: approximate three-fold improvement in helicity over CSP-2r
midpoint of thermal unfolding transition, TM [2]: 40±2 °C

CGGEIRALKYEIARLKQGGGGKKRALEQKIAALEGGC [CSP-2o] (disulfide 1-37)
helix content judged by CD spectroscopy [1]: ~40%
helicity compared with other designs (CD signal at 222 nm) [1]: approximately double the helical signal ([θ]222) of the parent peptide
midpoint of thermal unfolding transition, TM [2]: 40±2 °C

B1: CSP-4r (reduced and alkylated) (peptide)
peptide: C(Cam)GGEIRALKYEIARLKQAKQAEIRALKQEIAALKGGC(Cam)
notes: Anagram mutant of CSP-3 with all g:e pairs Glu:Lys; also called design iteration 4, reduced & alkylated; CSP-5a (Maya's nomenclature)
Kd [3]: 77 µM

B2: CSP-1r (Coiled-coil-Switch Peptide-1, reduced and alkylated) (peptide)
peptide: C(Cam)GGEIRALKYEIARLKQKKRALEQKIAALEGGC(Cam)
notes: Synthetic designed peptide; The entry is the monomer chain; the KD is for its monomer-dimer equilibrium (parallel coiled-coil homodimer); also called design iteration 1, reduced & alkylated; CSP-2a (Maya's nomenclature)
Kd [3]: 33 µM

B3: CSP-6r (reduced and alkylated) (peptide)
peptide: C(Cam)GGEIRALKYEIARLKQAAQAKIRALEQKIAALEGGC(Cam)
notes: CSP-3 with the Lys at the h position replaced by Ala; also called design iteration 6, reduced & alkylated; CSP-7a (Maya's nomenclature)
Kd [3]: 34 µM

B4: CSP-5r (reduced and alkylated) (peptide)
peptide: C(Cam)GGKIRALEYKIARLEQAKQAKIRALEQKIAALEGGC(Cam)
notes: Anagram mutant of CSP-3 with all g:e pairs Lys:Glu; also called design iteration 5, reduced & alkylated; CSP-6a (Maya's nomenclature)
Kd [3]: 72 µM

B5: CSP-3r (reduced and alkylated) (peptide)
peptide: C(Cam)GGEIRALKYEIARLKQAKQAKIRALEQKIAALEGGC(Cam)
notes: The entry is the monomer chain; the KD is for its monomer-dimer equilibrium; also called CSP-3a; design iteration 3, reduced & alkylated
Kd [3]: 191 µM

B6: CSP-7r (reduced and alkylated) (peptide)
peptide: C(Cam)GGEIRALKYEIARLKQAAQAKKRALEQKIAALEGGC(Cam)
notes: CSP-6 with the Ile at the a site after the hendecad unit replaced by Lys; also called design iteration 7, reduced & alkylated; CSP-8a (Maya's nomenclature)
Kd [3]: 506 µM
